Article PMC3127458 (Biochemistry, 2010)

B1: AppA Q63E full-length (natural protein, Rhodobacter sphaeroides, UniProt Q53119 1-450, looked up)
chain: MQHDLEADVTMTGSDLVSCCYRSLAAPDLTLRDLLDIVETSQAHNARAQLTGALFYSQGVFFEWLEGRPAAVAEVMTHIQRDRRHSNVEILAEEPIAKRRFAGWHMQLSCSEADMRSLGLAESRQIVTVGRSLVADNTNIFSFDRIAAVRRFLSDVCAARTLAPDTPVEADTFALYALTEAQAGRSGRAKAVARLSDLLSTDPLGRLTEVEELLRAHAPTAADFARLFEACAERLTRALAEDRISRMQVTLAYSALQMALRRIHHLPDPQKSVGAVLVAGVPGHKPILEAALAAEMLRAVGWSTSVVHPESVAALAARLKTSRTSTLVVAPSLLEGTEQEADTLRFVSALRARTDLPGLSILVGGRLAQLPPSKLKDSGADAGFAHLALLPAALARVACPANADCCSMRACRMPASQCCDKRINPEFLLANVMPSVLTRISSRQDRRRSA
B2: AppA Q63L full-length (natural protein, Rhodobacter sphaeroides, UniProt Q53119 1-450, looked up)
chain: MQHDLEADVTMTGSDLVSCCYRSLAAPDLTLRDLLDIVETSQAHNARAQLTGALFYSQGVFFLWLEGRPAAVAEVMTHIQRDRRHSNVEILAEEPIAKRRFAGWHMQLSCSEADMRSLGLAESRQIVTVGRSLVADNTNIFSFDRIAAVRRFLSDVCAARTLAPDTPVEADTFALYALTEAQAGRSGRAKAVARLSDLLSTDPLGRLTEVEELLRAHAPTAADFARLFEACAERLTRALAEDRISRMQVTLAYSALQMALRRIHHLPDPQKSVGAVLVAGVPGHKPILEAALAAEMLRAVGWSTSVVHPESVAALAARLKTSRTSTLVVAPSLLEGTEQEADTLRFVSALRARTDLPGLSILVGGRLAQLPPSKLKDSGADAGFAHLALLPAALARVACPANADCCSMRACRMPASQCCDKRINPEFLLANVMPSVLTRISSRQDRRRSA

Molecular target: the molecule itself
Test: SEC

Row | Protein | stoichiometry N
1 | B1 | 2
2 | B2 | 2
